Legend:
[1] = biological target: HIV-1 Env of strain 6244_13_B5_4576 (HIV-1); assay: cell-based or functional assay
[2] = biological target: HIV-1 Env of strain MS208.A1 (HIV-1); assay: cell-based or functional assay
[3] = biological target: HIV-1 Env of strain 1394C9G1(Rev-) (HIV-1); assay: cell-based or functional assay
[4] = biological target: HIV-1 Env of strain CNE19 (HIV-1); assay: cell-based or functional assay
[5] = biological target: HIV-1 Env of strain 6240_08_TA5_4622 (HIV-1); assay: cell-based or functional assay
[6] = biological target: HIV-1 Env of strain X1632_S2_B10 (HIV-1); assay: cell-based or functional assay
[7] = biological target: HIV-1 Env of strain Ce704809221_1B3 (HIV-1); assay: cell-based or functional assay
[8] = biological target: Env of HIV-1 strain C3347.c11 (HIV-1); assay: cell-based or functional assay
[9] = biological target: Env of HIV-1 strain Ce703010054_2A2 (HIV-1); assay: cell-based or functional assay
[10] = biological target: Env of HIV-1 strain 6041.v3.c23 (HIV-1); assay: cell-based or functional assay
[11] = biological target: Env of HIV-1 strain ZM53M.PB12 (HIV-1); assay: cell-based or functional assay
[12] = biological target: Env of HIV-1 strain 620345.c01 (HIV-1); assay: cell-based or functional assay
[13] = biological target: Env of HIV-1 strain 6811.v7.c18 (HIV-1); assay: cell-based or functional assay
[14] = biological target: Env of HIV-1 strain X1254_c3 (HIV-1); assay: cell-based or functional assay
[15] = biological target: Env of HIV-1 strain REJO4541.67 (HIV-1); assay: cell-based or functional assay
[16] = biological target: Env of HIV-1 strain 6535.3 (HIV-1); assay: cell-based or functional assay
[17] = biological target: Env of HIV-1 strain Ce0393_C3 (HIV-1); assay: cell-based or functional assay
[18] = biological target: Env of HIV-1 strain HIV-001428-2.42 (HIV-1); assay: cell-based or functional assay
[19] = biological target: Env of HIV-1 strain 7030102001E5(Rev-) (HIV-1); assay: cell-based or functional assay
[20] = biological target: Env of HIV-1 strain BJOX025000.01.1 (HIV-1); assay: cell-based or functional assay
[21] = biological target: Env of HIV-1 strain X2131_C1_B5 (HIV-1); assay: cell-based or functional assay
[22] = biological target: Env of HIV-1 strain Du422.1 (HIV-1); assay: cell-based or functional assay
[23] = biological target: Env of HIV-1 strain 9004SS_A3_4 (HIV-1); assay: cell-based or functional assay
[24] = biological target: Env of HIV-1 strain Ce1086_B2 (HIV-1); assay: cell-based or functional assay
[25] = biological target: Env of HIV-1 strain 3301.v1.c24 (HIV-1); assay: cell-based or functional assay
[26] = biological target: Env of HIV-1 strain HIV-16845-2.22 (HIV-1); assay: cell-based or functional assay
[27] = biological target: HIV-1 Env of strain Du172.17 (HIV-1); assay: cell-based or functional assay
[28] = biological target: HIV-1 strain YU2 gp160 (gp120) (HIV-1) (UniProt P35961)
[29] = biological target: YU2 gp160 point mutant at 279gp120 (HIV-1) (UniProt P35961)
[30] = biological target: YU2 gp160 point mutant at 458gp120 (HIV-1) (UniProt P35961)
[31] = biological target: YU2 gp160 point mutant at 458gp120 (HIV-1) (UniProt P35961); assay: cell-based or functional assay
[32] = biological target: Env of HIV-1 strain X1632_S2_B10 (HIV-1); assay: cell-based or functional assay

Binder	IC50, pseudovirus neutralization [1] [µg/mL]	IC50, pseudovirus neutralization [2] [µg/mL]	IC50, pseudovirus neutralization [3] [µg/mL]	IC50, pseudovirus neutralization [4] [µg/mL]	IC50, pseudovirus neutralization [5] [µg/mL]	IC50, pseudovirus neutralization [7] [µg/mL]	IC80 [8] [µg/mL]	IC80 [9] [µg/mL]	IC80 [10] [µg/mL]	IC80 [11] [µg/mL]	IC80 [12] [µg/mL]	IC80 [13] [µg/mL]	IC80 [14] [µg/mL]	IC80 [15] [µg/mL]	IC80 [16] [µg/mL]	IC80 [17] [µg/mL]	IC80 [18] [µg/mL]	IC80 [19] [µg/mL]	IC80 [20] [µg/mL]	IC80 [21] [µg/mL]	other results
NIH45-46^G54W(HC), S28Y(LC) (antibody, V domains shown) VH: QVRLSQSGGQMKKPGESMRLSCRASGYEFLNCPINWIRLAPGRRPEWMGWLKPRWGAVNYARKFQGRVTMTRDVYSDTAFLELRSLTSDDTAVYFCTRGKYCTARDYYNWDFEHWGRGAPVTVSS VL: EIVLTQSPATLSLSPGETAIISCRTSQYGSLAWYQQRPGQAPRLVIYSGSTRAAGIPDRFSGSRWGADYNLSISNLESGDFGVYYCQQYEFFGQGTKVQVDI	0.03	0.022	0.012	0.022	0.173	0.101															IC50, pseudovirus neutralization [6]: 0.001 µg/mL
NIH45-46^G54W (antibody, V domains shown) VH: QVRLSQSGGQMKKPGESMRLSCRASGYEFLNCPINWIRLAPGRRPEWMGWLKPRWGAVNYARKFQGRVTMTRDVYSDTAFLELRSLTSDDTAVYFCTRGKYCTARDYYNWDFEHWGRGAPVTVSS VL: EIVLTQSPATLSLSPGETAIISCRTSQSGSLAWYQQRPGQAPRLVIYSGSTRAAGIPDRFSGSRWGADYNLSISNLESGDFGVYYCQQYEFFGQGTKVQVDI	0.005	0.031	0.001	0.002	0.11	0.007	0.028	0.077	0.001	0.16	> 50	0.033	0.018	0.013	0.13	0.089	0.001	0.228	0.135	0.24	IC80 [22]: > 50 µg/mL; IC80 [23]: 0.28 µg/mL; IC80 [24]: 0.091 µg/mL; IC80 [25]: 0.004 µg/mL; IC80 [26]: 2.1 µg/mL
NIH45-46^G54W IgG (antibody, name in Kabat numbering, V domains shown) VH: QVRLSQSGGQMKKPGESMRLSCRASGYEFLNCPINWIRLAPGRRPEWMGWLKPRWGAVNYARKFQGRVTMTRDVYSDTAFLELRSLTSDDTAVYFCTRGKYCTARDYYNWDFEHWGRGAPVTVSS VL: EIVLTQSPATLSLSPGETAIISCRTSQSGSLAWYQQRPGQAPRLVIYSGSTRAAGIPDRFSGSRWGADYNLSISNLESGDFGVYYCQQYEFFGQGTKVQVDI																					neutralization IC50 [27]: 0.9 µg/mL; IC50, pseudovirus neutralization (TZM-bl, luciferase) [28]: 0.008 µg/mL; IC50, pseudovirus neutralization (TZM-bl, luciferase) (G459D (HIV-1)): 0.01 µg/mL; IC50, pseudovirus neutralization (TZM-bl, luciferase) (N280D (HIV-1)): > 50 µg/mL; IC50, pseudovirus neutralization (TZM-bl, luciferase) [29]: > 50 µg/mL; IC50, pseudovirus neutralization (TZM-bl, luciferase) (R456W (HIV-1)): 6 µg/mL; IC50, pseudovirus neutralization (TZM-bl, luciferase) [30]: 18 µg/mL; IC50, pseudovirus neutralization (TZM-bl, luciferase) (N280Y (HIV-1)): > 50 µg/mL; decrease of neutralization potency against YU2 [31]: > 1500 fold
NIH45-46^G54F IgG (antibody, name in Kabat numbering, V domains shown) VH: QVRLSQSGGQMKKPGESMRLSCRASGYEFLNCPINWIRLAPGRRPEWMGWLKPRFGAVNYARKFQGRVTMTRDVYSDTAFLELRSLTSDDTAVYFCTRGKYCTARDYYNWDFEHWGRGAPVTVSS VL: EIVLTQSPATLSLSPGETAIISCRTSQSGSLAWYQQRPGQAPRLVIYSGSTRAAGIPDRFSGSRWGADYNLSISNLESGDFGVYYCQQYEFFGQGTKVQVDI																					neutralization IC50 [27]: 16 µg/mL
NIH45-46^G54W(HC) S28Y(LC) (antibody, V domains shown) VH: QVRLSQSGGQMKKPGESMRLSCRASGYEFLNCPINWIRLAPGRRPEWMGWLKPRWGAVNYARKFQGRVTMTRDVYSDTAFLELRSLTSDDTAVYFCTRGKYCTARDYYNWDFEHWGRGAPVTVSS VL: EIVLTQSPATLSLSPGETAIISCRTSQYGSLAWYQQRPGQAPRLVIYSGSTRAAGIPDRFSGSRWGADYNLSISNLESGDFGVYYCQQYEFFGQGTKVQVDI							0.034	0.051	0.003	0.257	> 50	0.11	0.03	0.01	0.059	0.151	0.002	0.229	0.211	0.145	IC80 [22]: > 50 µg/mL; IC80 [23]: 0.138 µg/mL; IC80 [24]: 0.042 µg/mL; IC80 [32]: 0.007 µg/mL; IC80 [25]: 0.006 µg/mL; IC80 [26]: 1.44 µg/mL

— patent US20130209454A1
